Reference: the supplement of paper PMC9112550, “Optimization of the antimicrobial peptide Bac7 by deep mutational scanning” (BMC Biology, 2022)

Tested on: Escherichia coli TOP10
Assay: shrunken log2 fold change of peptide-encoding DNA abundance (4.5 h post-induction vs induction); higher = less antimicrobial activity (less host growth inhibition)
Conditions: time post-induction: 4.5 h; library: site-saturation at positions 5, 18, 19, 20
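Note: peptides expressed intracellularly from a pBAD plasmid library in pooled LB shake-flask culture, induced with 0.3% L-arabinose, DNA abundance read by NGS, three biological replicates, DESeq2 with apeglm shrinkage.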

Row | Sequence | shrunken log2 fold change
1 | RRIRLRPPRLPRPRPRPKPWPRP | 0.387
2 | RRIRCRPPRLPRPRPRPQNFPRP | -0.43
3 | RRIRKRPPRLPRPRPRPVIYPRP | -0.0353
4 | RRIRKRPPRLPRPRPRPLWFPRP | 0.107
5 | RRIRNRPPRLPRPRPRPCGSPRP | -0.0353
6 | RRIRKRPPRLPRPRPRPLEPPRP | 0.238
7 | RRIRSRPPRLPRPRPRPFNDPRP | -0.223
8 | RRIRARPPRLPRPRPRPWHFPRP | 0.24
9 | RRIRFRPPRLPRPRPRPYWDPRP | -2.48
10 | RRIRMRPPRLPRPRPRPYWYPRP | -0.0684
11 | RRIRWRPPRLPRPRPRPANYPRP | -0.0848
12 | RRIRMRPPRLPRPRPRPQTFPRP | -0.0186
13 | RRIRMRPPRLPRPRPRPEWYPRP | 0.0183
14 | RRIRERPPRLPRPRPRPNWHPRP | -0.185
15 | RRIRARPPRLPRPRPRPGWVPRP | 0.29
16 | RRIRTRPPRLPRPRPRPKDAPRP | 0.103
17 | RRIRDRPPRLPRPRPRPRKFPRP | -0.0848
18 | RRIRSRPPRLPRPRPRPVYIPRP | -0.124
19 | RRIRHRPPRLPRPRPRPCGMPRP | -0.0838
20 | RRIRYRPPRLPRPRPRPDNGPRP | -0.00114
21 | RRIRSRPPRLPRPRPRPDWCPRP | 0.224
22 | RRIRTRPPRLPRPRPRPPIIPRP | 0.0882
23 | RRIRGRPPRLPRPRPRPPQYPRP | 0.38
24 | RRIRNRPPRLPRPRPRPHWGPRP | -0.0266
25 | RRIRMRPPRLPRPRPRPCSSPRP | -0.0756

Row | Sequence | shrunken log2 fold change
26 | RRIRYRPPRLPRPRPRPERMPRP | -0.459
27 | RRIRGRPPRLPRPRPRPQWWPRP | 0.53
28 | RRIRIRPPRLPRPRPRPYNNPRP | -0.462
29 | RRIRPRPPRLPRPRPRPSEKPRP | -0.0945
30 | RRIRPRPPRLPRPRPRPDGYPRP | -0.246
31 | RRIRTRPPRLPRPRPRPILMPRP | -0.306
32 | RRIRCRPPRLPRPRPRPHGWPRP | 0.267
33 | RRIRVRPPRLPRPRPRPLYVPRP | -0.705
34 | RRIRFRPPRLPRPRPRPSPAPRP | 0.176
35 | RRIRLRPPRLPRPRPRPASVPRP | -0.0571
36 | RRIRIRPPRLPRPRPRPQKPPRP | -0.00327
37 | RRIRQRPPRLPRPRPRPCDCPRP | -0.0243
38 | RRIRMRPPRLPRPRPRPGQHPRP | 0.406
39 | RRIRPRPPRLPRPRPRPTTMPRP | -0.126
40 | RRIRWRPPRLPRPRPRPRTCPRP | -0.045
41 | RRIRERPPRLPRPRPRPCSAPRP | -0.0881
42 | RRIRHRPPRLPRPRPRPRDYPRP | 0.0554
43 | RRIRCRPPRLPRPRPRPIRCPRP | -0.00208
44 | RRIRNRPPRLPRPRPRPRNCPRP | -0.0144
45 | RRIRVRPPRLPRPRPRPQNSPRP | -0.802
46 | RRIRGRPPRLPRPRPRPKFCPRP | 0.23
47 | RRIRWRPPRLPRPRPRPGTYPRP | -0.127
48 | RRIRFRPPRLPRPRPRPHKSPRP | -0.396
49 | RRIRERPPRLPRPRPRPLTFPRP | -0.693
50 | RRIRSRPPRLPRPRPRPQSEPRP | -0.0306
